{
  "source": "patent US20190093159",
  "key": {"wt nucleosomes": {"target": "wt nucleosomes (UniProt P62805)"}, "[1]": {"target": "H4Kac5-containing nucleosomes (H4 K5/8/12/16/20ac) (UniProt P62805)"}, "[2]": {"tested_on": "H3Kac5-containing nucleosomes (H3 K9/14/18/23/27ac)"}, "nucleosomes with H4K12ac": {"target": "nucleosomes with H4K12ac (UniProt P62805)"}},
  "data": [
    {"substance": "recombinant full-length human p300", "values": [
      {"measurement": "pulldown with α-H3K18ac antibody (% input), with AcCoA", "setting": "wt nucleosomes", "value": "an increase in pulldown from 0.3% to about 4% input"},
      {"measurement": "pulldown with α-H3K18ac antibody (% input), without AcCoA", "setting": "wt nucleosomes", "value": "an increase in pulldown from 0.3% to about 4% input"},
      {"measurement": "pulldown with α-H4K5ac antibody (% input), with AcCoA", "setting": "wt nucleosomes", "value": "0.5 to 0.9", "unit": "% input"},
      {"measurement": "pulldown with α-H4K5ac antibody (% input), without AcCoA", "setting": "wt nucleosomes", "value": "0.5 to 0.9", "unit": "% input"},
      {"measurement": "H3 acetylation (α-H3K18ac pulldown) compared to wt", "setting": "[1]", "value": "13-fold compared to wt"},
      {"measurement": "H4 acetylation (α-H4K5ac pulldown) compared to wt", "setting": "[2]", "value": "6-fold increase compared to wt"},
      {"measurement": "H3 acetylation (α-H3K18ac pulldown)", "setting": "nucleosomes with H4K12ac", "value": "This effect was dependent on the exact position of the mark within the tail and was most pronounced for H4K12ac"},
      {"measurement": "pulldown efficiency with α-H4K5ac antibody (% input)", "setting": "nucleosomes with H4K12ac", "value": 4.4, "unit": "% input"}
    ]}
  ]
}
